Experimental data published in IntAct's records for PubMed 10887173.

B1: 14-3-3 protein zeta/delta (Homo sapiens), P63104 (parent)
chain: MDKNELVQKAKLAEQAERYDDMAACMKSVTEQGAELSNEERNLLSVAYKNVVGARRSSWRVVSSIEQKTEGAEKKQQMAREYREKIETELRDICNDVLSLLEKFLIPNASQAESKVFYLKMKGDYYRYLAEVAAGDDKKGIVDQSQQAYQEAFEISKKEMQPTHPIRLGLALNFSVFYYEILNSPEKACSLAKTAFDEAIAELDTLSEESYKDSTLIMQLLRDNLTLWTSDTQGDEAEAGEGGEN

Variants of: B1
Details: with vime_chlae VIM
For E5K;L12Q;A13Q;E14R;Y82Q;K85N;E87Q, the “effect of a mutation on the interaction” value was “decreasing interaction”.
